The values that follow come from patent publication US20180088134A1.

The target of experiment [1] is non-mutated human leptin (human) (UniProt P41159). The experiment can be described thus: ELISA, plate-bound leptin receptor-Fc; sample 4, purified recombinant leptin. A general note: ELISA stands for enzyme-linked immunosorbent assay.
Experiment [2] shares this target. The experiment can be described thus: ELISA, plate-bound leptin receptor-Fc; sample 8, blood donor serum/plasma CS-2.
For experiment [3] the target is unchanged. Put plainly: ELISA, plate-bound leptin receptor-Fc; sample 9, blood donor serum/plasma DO-2226.
The target is the same in experiment [4]. The experiment can be described thus: ELISA, plate-bound leptin receptor-Fc; sample 12, blood donor serum/plasma BB-3935.
For experiment [5] the target is unchanged. Put plainly: ELISA, plate-bound leptin receptor-Fc; sample 10, blood donor serum/plasma IDB-883-.
The target is the same in experiment [6]. Put plainly: ELISA, plate-bound leptin receptor-Fc; sample 11, blood donor serum/plasma IDB-8960.
Experiment [7] shares this target. Put plainly: receptor-Fc ELISA value divided by anti-leptin antibody ELISA value; WHO standard 2 ng/ml.
The target is the same in experiment [8]. The experiment can be described thus: receptor-Fc ELISA value divided by anti-leptin antibody ELISA value; WHO standard 6 ng/ml.
Experiment [9] shares this target. The experiment can be described thus: ELISA, plate-bound leptin receptor-Fc; sample 6, WHO standard NIBSC 97/594, nominal 2 ng/ml.
Experiment [10] has the same target. The experiment can be described thus: ELISA, plate-bound leptin receptor-Fc; sample 7, WHO standard NIBSC 97/594, nominal 6 ng/ml.
Experiment [11] has the same target. The experiment can be described thus: receptor-Fc ELISA value divided by anti-leptin antibody ELISA value; sample 1, HEK293 supernatant.
Experiment [12] shares this target. Put plainly: receptor-Fc ELISA value divided by anti-leptin antibody ELISA value; sample 8, blood donor serum/plasma.
Experiment [13] shares this target. The experiment can be described thus: receptor-Fc ELISA value divided by anti-leptin antibody ELISA value; sample 9, blood donor serum/plasma.
Experiment [14] has the same target. Put plainly: receptor-Fc ELISA value divided by anti-leptin antibody ELISA value; sample 10, blood donor serum/plasma.
Experiment [15] has the same target. Put plainly: receptor-Fc ELISA value divided by anti-leptin antibody ELISA value; sample 11, blood donor serum/plasma.
For experiment [16] the target is unchanged. Put plainly: receptor-Fc ELISA value divided by anti-leptin antibody ELISA value; sample 12, blood donor serum/plasma.
Experiment [17] has the same target. The experiment can be described thus: ELISA, plate-bound leptin receptor-Fc, detection with polyclonal anti-leptin; sample 1, HEK293 supernatant.

UniProt P41159, sequence (P41159 22-167, change not shown): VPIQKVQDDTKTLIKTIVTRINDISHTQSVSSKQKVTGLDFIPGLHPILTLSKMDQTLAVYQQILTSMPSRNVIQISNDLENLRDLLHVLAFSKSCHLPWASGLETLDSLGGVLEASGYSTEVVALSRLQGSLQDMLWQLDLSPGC

For the substance “Recombinant Human Leptin R Fc Chimera, Catalog Number 389-LR/CF, R & D Systems (amino acid sequence Thr20-Asp839 of the human leptin receptor) (from UniProt P48357 20-839) (Fc fusion)”, the measured value functional leptin (concentration read from standard curve) in experiment [1] worked out at 278 µg/mL; in experiment [2] it was 2.81 ng/mL; in experiment [3], 4.61 ng/mL; in experiment [4], 34.1 ng/mL; in experiment [5], 7.25 ng/mL; in experiment [6] it was 24 ng/mL. Further, the measured value functional leptin (concentration read from standard curve) in [9] worked out at 1.83 ng/mL; in experiment [10], 6.05 ng/mL; in experiment [17], 490 ng/mL. Moreover, the quotient of functional leptin and total leptin in [7] stood at 0.99; in experiment [8], 0.99; in [11], 0.85; in [12], 1.14; in experiment [13] it was 0.91; in experiment [14], 0.87. Besides, the quotient of functional leptin and total leptin in [15] was 0.96; in [16], 0.98.
